# Source: the nanobody polyreactivity screen of Harvey et al. (2022)
# Experiment: yeast display, Sf9 membrane polyspecificity reagent, FACS + sequencing; frameworks hold sequencing errors
# Outline: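 Sorting gates, low and high (top ~1%), were placed on anti-HA fluorescence to track expression and on streptavidin fluorescence to track reagent binding. A clone's polyreactivity label is taken from the gate it came out of. The reagent was 10% biotinylated, detergent-solubilized Sf9 membrane, applied for 1 hour at 4 °C to galactose-induced yeast display cells.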
row,Sequence,polyreactivity (PSR sort gate)
1,QVQHVESGGGLVQAGASLRLSCAASGLTFRSNAMGWYSQAPGKERELVAAISSSGGSTYYADSVKGRFTISRDNAQNTVYLQMNSLKPEDTAVYYCAAEDPGDQYDYWGQGTQVTVSS,high polyreactivity
2,QVQHVESGGGLVQAGGILRLICPDSGFTIRHKAMGWYRQAPGKEREFVAAISWYDGSTYADSVKGRFTISRDNAKYTVYIQLNCLKPEDTAVYFCNADYPSYRYFTGRHYWGQGTQVTVSS,low polyreactivity
3,QVQHVESGGGLVQAGGRLRLSCAASGSIFAWYARGWYIQAPGKEREVVADITHSGGSTYYADSLKGRFTISRDNAKNTVYLQMYSLKPEDTAVSYCVDYWYNDLQSGWEDDYWGQGTQVTVAS,low polyreactivity
4,QVQHVESGGGLVQAGGRLRLSCAASGSTFDYYVMGWYRQAPGKEREMVAAISQNAGSTYYADSVKGRFTISRDNAKNTVYLQMNSLKPEDTAVYYCAAPDYRNGVRYPLDYWGQGTQVTVSS,low polyreactivity
5,QVQHVESGGGLVQAGGSHRLSCAASGSTFTYYAMGWYRQAPGKERELVAAISRGGSTYYADSVKGRFTISRDNAKNTVYLKKYSLKPEDTAVYYCAAERGYKKWSRGYWGQGTLVTVSS,high polyreactivity
6,QVQHVESGGGLVQAGGSLLLSCAASGSIFEINAMGWYRQAPGKERELVADIRRGDSTNYADSVKGRFTNSRDNAKNTVYLQMNSLKPEDTAVYYCAARWRRSKYGVYPQRPYDYWGQGTQVTVSS,high polyreactivity
7,QVQHVESGGGLVQAGGSLLLSCAASGSTFGFYTMGWYRQAPGKERELVAAISWSTGRTYYADSVKGRFTISRDNAKNTVYLQMNSLKPEDTAVYYCNADGYPEQVYYYSAFQGMDYWGQGTQVTVSS,low polyreactivity
8,QVQHVESGGGLVQAGGSLRISCAASGFISTGNAMGWSRQAPGKERELVAAITTGGSTYYADSVKGRFTISRDNAKNTVYLQMNSLKPEDTAVYYCNAVYVWWDGWGLYYWGQGTQGTVSS,low polyreactivity
9,QVQHVESGGGLVQAGGSLRLICAASGYIFRGYVMGWYRQAPGKERELVAAITSRGDSTYYADSVKGRFTISRDNAKNTVYLPMNSLKPEDTAVYYCAARGGVLKGYYYWGQGTQVTVSS,high polyreactivity
10,QVQHVESGGGLVQAGGSLRLRCAASGSIFYRYVMGWYRQAHGKERELVAAISVSGGTTYYADSVKGRITISRDNAKNTVYLQMNRLKPEDTAVYYCAAEDSLTEDPAHDYWGQGTQVTVSS,low polyreactivity
11,QVQHVESGGGLVQAGGSLRLSCAASGFIFAANAMGWYRQGPGKERELVAAINYRGSSTYYADSVKGRFTISRDNAKNTVNLQMNSLKPEDTAVYYCAARSGAQRGGGYWGQGTQVTVSS,high polyreactivity
12,QVQHVESGGGLVQAGGSLRLSCAASGFIFPYYAMGWYRQAPGKERELVAAINSGTSTYYADSVKGRFTISRDNAKNTVYLQMNSLKPEDTAVYYCAAAYPLWYEYDYWGQGTQVTVSS,low polyreactivity
13,QVQHVESGGGLVQAGGSLRLSCAASGFIFRSYAMGWFRQAPGKERELVAAISNGVITNYADSVKGRFTISRDNSKNTVYLQRNSLKPEDTAVYYCDADYNSQDDYWGQGTQVTVSS,low polyreactivity
14,QVQHVESGGGLVQAGGSLRLSCAASGFIFSWNAMGWYRQAPGKERELVAGISWSGGSTYYADSVKGRFTISRDNAKNTVYLQMNRLKPEDTAVYYCAKEPSVGTGGVYRYGRGDYWGQGTQVTVSS,low polyreactivity
15,QVQHVESGGGLVQAGGSLRLSCAASGFTFATYAMGWYRQAQGKERELVAAISRGTSTYYADSVKGRFTISRVNAKNTVYLQMNSLIPDDTAVYYCAATSSFRYDYWGKGTQVTVSS,low polyreactivity
16,QVQHVESGGGLVQAGGSLRLSCAASGFTFGYYAMGWYRQAPGKERELVAAISGSGGGTYYADSVKGRFTISRDNAKNTVYLQMNSLKPEDTAVYYCNTGRYDRKYDYWGQGTQVTVSS,high polyreactivity
17,QVQHVESGGGLVQAGGSLRLSCAASGFTFPGYAMGWYRQAPGKERELVAAISSSGGRTNYADSVKGRFTISRDNAKNTVYLQMNSLKPEDTAVYYCKAVRTVRSYLQLTRHLVYWGQGTQVTVSS,high polyreactivity
18,QVQHVESGGGLVQAGGSLRLSCAASGFTFRHNAMGWYRQAPGKERELVAAMTKSGRRTYDADSVKGRFTISRDNAKNTVYLQMNSLKPEDTAVYYCKKDLRQSYANVDYWGQGTQVTVSS,high polyreactivity
19,QVQHVESGGGLVQAGGSLRLSCAASGFTFRRYAMGWYRQAPGKERELVAAISINGGSTYYADSVKGRFTISRDNAMNTVYLQMNSLKPEDTAVYYCNKGSVRGEYDYWGQGTLVTVSS,high polyreactivity
20,QVQHVESGGGLVQAGGSLRLSCAASGFTFSVYVLGWSRQAPGKERELVAAITWSGGSTYYADSEQGRITISRDHAKNTVYLQMNSQKPQETAVYYCAAQAFSPHYGWFYYWGQGTQVTVSS,high polyreactivity
21,QVQHVESGGGLVQAGGSLRLSCAASGFTSTVYAMGCYRQAPGKERELVASITWSGGRTYYADSVKGRFTISRDNAKNTVYFQMNSLKPEDTAVYYCAARTYSYGSILKYYYWGQGSQVTVSS,high polyreactivity

row,Sequence,polyreactivity (PSR sort gate)
1,QVQHVESGGGLVQAGGSLRLSCAASGGIFYYNTMGWYRQAPGKERELVAAITGGGRTNYADSVKGRFTISRDNAKNTVYLQMNSLKPEDTAVYYCNAVYWRTRMDYWGQGTQVTVSS,high polyreactivity
2,QVQHVESGGGLVQAGGSLRLSCAASGGTFYGYAMGCYRQAPGKERELVAVITYSGGSTYYADSVKGRFTISRDNAKNTVYLQMYSLKPEDTAVYYCAADVKYGYDWGQGTQVTVSS,high polyreactivity
3,QVQHVESGGGLVQAGGSLRLSCAASGIIFGHYDMGWYRQAPGKERELVAAITFTGDSTYYADSVKGRFTISRDNAKITVYLQMNSLKPEDTAVYFCAADTPVPWGSWGYDYWGQGTQVTVSS,low polyreactivity
4,QVQHVESGGGLVQAGGSLRLSCAASGITFNEYAMGWYRQAPGKEREFVAAISSSGARTYYADSVKGRFTISRDNAKNTVYLQMNSLKPEDTAVYYCAAVYRSWTSYNGRNYWGQGTQVTVSS,high polyreactivity
5,QVQHVESGGGLVQAGGSLRLSCAASGITFSSYAMGWYRQAPGKERELVAAISSGGSTYYADSVKGRFTISRDNAKNTVYFQMNSLKPEDTAVYYCAAELATYVPNKWYYRYTGYYYWGQGTQVTVSS,low polyreactivity
6,QVQHVESGGGLVQAGGSLRLSCAASGIYYNAMGWYRQAPGKERELVAVITYSGGSTYYADSVKGRFTISRDNAKNTVYLQMNSLKPEETAVYYCAADDYYVALPGLYDYWGQGTQVTVSS,low polyreactivity
7,QVQHVESGGGLVQAGGSLRLSCAASGLTFSTYDMGWYRQAPGKERDLVAAITYSGGSTYYADSVKGRFTISRDHAKNTVYLQMNSLKPEDTAVYYSATTWYFVASWYVAIYDYWGQGTQVTVST,low polyreactivity
8,QVQHVESGGGLVQAGGSLRLSCAASGLTIWYYAIGWYRQAPGKEREFVAAITSRGGDTYYADSVKGRFTISRDNAKNTVYLQLNSLKPEDTGVYYCAVRPRYYGTYRYYYWGQGTQVTVSS,high polyreactivity
9,QVQHVESGGGLVQAGGSLRLSCAASGRIFGTYAMGWYRPAPGKERELVAAISWRGGSTYYADSVKGRFTISRDNAKNTVYLQMNSLKPEDTAVYYCAATWWSPSRGTKGDYWGQGTQVTVSS,low polyreactivity
10,QVQHVESGGGLVQAGGSLRLSCAASGRIFQRNTMGWYRQAPGKERELVARINYSGGSTYYADSVKGRFTISRDNAKTTVYLQLNSLKPEDTAVYYCAARVWTWSIYYPAGLSSYDYWGQGTQVTVSS,low polyreactivity
11,QVQHVESGGGLVQAGGSLRLSCAASGRIFSFYVMGWYRQAPGKERELVAVIRKNGGSTYYADSVKGRFTISRDNAKNTVYLQMNSLKPEDTAVYYCTARSVPRYGYWGLGTQVTVSS,high polyreactivity
12,QVQHVESGGGLVQAGGSLRLSCAASGRIFVAYTMGWYRQAPGKERELVAGISRSGGSTYYADSVKGRFTISRDNAKNTVYLQMNNLKPEDTAVYYCAVGNWRLFPYGYWGQGTQVTVSS,high polyreactivity
13,QVQHVESGGGLVQAGGSLRLSCAASGRIFYLNAMGWYRQAPGKERELVAAISRVGRTNYADSVKGRFTISRDNAKNTVYLQMNSLKPEDTAVYYCAAVYYSVNGRHGYWGQGTQVTVSS,high polyreactivity
14,QVQHVESGGGLVQAGGSLRLSCAASGRIIRRNARGSYRLAPGKERELVAAISWSGGSTYYADSVKGRFTISRDNAKNSVDLQMNSLKQEDTAVYYCAAVPCYTGDYWGQGTQVTVSS,low polyreactivity
15,QVQHVESGGGLVQAGGSLRLSCAASGRIYRKAMGWYRQAPGKERELVAVITRGGSTNYADSVKGRFTISRDNAKNSVYLQMNSLKPEDTAVYYCAATYSYRFSSFDYWGQGTQVTVSS,high polyreactivity
16,QVQHVESGGGLVQAGGSLRLSCAASGRTFAQYTMGWYRQAPGKERELVAGIDWSGGNTYYADSVKGRFTISRDNAKNTVYLQMNSLKPVDTAVYYCAAVPAFYNAWGEDYEYWGQGTQVTVSS,low polyreactivity
17,QVQHVESGGGLVQAGGSLRLSCAASGRTFGSNAMGWYRQAPGKERELVAAISLRGGRTYYADSVKGRFTISRDNAKNTVYLLMNSLKPEDTAVYYCNAVHYLYGARSRLTYDYWGQGTQVTVSS,high polyreactivity
18,QVQHVESGGGLVQAGGSLRLSCAASGRTFPPYDMGWYRQAPGKERELVAAITSDGSTSYADSVKGRFTISRDNAKNTVYLQMNSLKPEDTAVYYCAAYRWYSAARMGYWGQGTQVTVSS,high polyreactivity
19,QVQHVESGGGLVQAGGSLRLSCAASGRTFRLYAMGRYRMAPGKERELVAAITRGGRTNYADSVKGRFTISRDNAKNTVYLQMNSLKPEDTAVYYCAVAGFDRGQYVRYYYWGQGTQVTVSS,low polyreactivity
20,QVQHVESGGGLVQAGGSLRLSCAASGRTIIKYAMGWYRQAPGKERELVAAISRSAGSTYYADSVKGRFTISRDNAKNTVYLQMNSLKPEDTAVYYCNAVTSSYLRFDYWGQGTQVTVSS,high polyreactivity
